We go through one molecule from paper PMC13381803 (2026).

For assay [1], the target named is T1, Hna with a C-terminal GFP tag (Sinorhizobium meliloti).
T1 chain: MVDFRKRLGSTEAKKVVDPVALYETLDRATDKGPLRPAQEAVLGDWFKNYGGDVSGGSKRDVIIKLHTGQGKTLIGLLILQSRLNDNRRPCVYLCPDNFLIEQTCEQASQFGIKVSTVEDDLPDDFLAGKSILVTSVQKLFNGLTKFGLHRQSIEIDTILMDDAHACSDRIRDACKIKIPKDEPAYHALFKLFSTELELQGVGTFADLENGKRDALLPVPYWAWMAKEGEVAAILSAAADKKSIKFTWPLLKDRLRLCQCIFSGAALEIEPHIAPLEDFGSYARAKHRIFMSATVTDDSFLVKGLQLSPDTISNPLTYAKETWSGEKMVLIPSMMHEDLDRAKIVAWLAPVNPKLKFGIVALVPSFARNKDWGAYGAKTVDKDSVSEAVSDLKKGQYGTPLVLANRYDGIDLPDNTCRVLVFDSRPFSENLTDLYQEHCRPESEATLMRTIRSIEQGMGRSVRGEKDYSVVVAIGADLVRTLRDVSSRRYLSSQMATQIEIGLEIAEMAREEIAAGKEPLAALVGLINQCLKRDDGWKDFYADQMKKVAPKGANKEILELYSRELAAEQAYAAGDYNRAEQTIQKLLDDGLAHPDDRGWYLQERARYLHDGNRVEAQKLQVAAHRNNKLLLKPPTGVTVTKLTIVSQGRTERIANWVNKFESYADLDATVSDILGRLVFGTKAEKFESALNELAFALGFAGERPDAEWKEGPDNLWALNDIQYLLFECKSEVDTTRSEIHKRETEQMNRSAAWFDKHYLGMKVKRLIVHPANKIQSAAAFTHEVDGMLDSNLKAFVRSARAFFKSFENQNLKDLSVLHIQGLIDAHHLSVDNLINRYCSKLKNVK
In words: FP; without ATP.

Assay [2] concerns the target T1, Hna with a C-terminal GFP tag. Kind of assay: FP; with ATP.

B1: Hna (helicase-nuclease abortive infection), wild type, Sinorhizobium meliloti (enzyme)
chain: T1 chain
Turning to B1, the Kd in assay [1] was determined as 4.46 µM; in assay [2], 0.337 µM.

The Kd is a measure of binding affinity in units of concentration. A low value points to higher affinity.
